Km and kcat data for 1 protein are collected here from paper PMC8670242, “Functional Characterization and Structural Insights Into Stereoselectivity of Pulegone Reductase in Menthol Biosynthesis” (Frontiers in Plant Science, 2021).

Substrate in data set [1]: CC(C)=C1CC[C@H](C)CC1=O
The data set can be described thus: chiral GC of menthone/isomenthone formed, Michaelis-Menten. Format: biochemical, Mentha x piperita. The note with it: 10 mM NADPH with glucose-6-phosphate/G6PDH regeneration, pH 7.5, 31 °C, n-hexane overlay.

Substrate in data set [2]: CC(C)=C1CC[C@@H](C)CC1=O
Described as above. Format: biochemical, Mentha x piperita. The note with it: 10 mM NADPH with glucose-6-phosphate/G6PDH regeneration, pH 7.5, 31 °C, n-hexane overlay.

B1: MpPR (Mentha x piperita) (protein)
chain: MVMNKQIVLNNYINGSLKQSDLALRTSTICMEIPDGCNGAILVKNLYLSVNPYLILRMGKLDIPQFDSILPGSTIVSYGVSKVLDSTHPSYEKGELIWGSQAGWEEYTLIQNPYNLFKIQDKDVPLSYYVGILGMPGMTAYAGFFEICSPKKGETVFVTAAAGSVGQLVGQFAKMFGCYVVGSAGSKEKVDLLKNKFGFDDAFNYKEESDYDTALKRHFPEGIDIYFDNVGGKMLEAVINNMRVHGRIAVCGMVSQYSLKQPEGVHNLLKLIPKQIRMQGFVVVDYYHLYPKFLEMVLPRIKEGKVTYVEDISEGLESAPSALLGVYVGRNVGNQVVAVSRE
notes: pET28a His-tag fusion, E. coli BL21(DE3), Ni-NTA and gel filtration; homodimer; EC 1.3.1.81
A word on the Km: it is the substrate concentration at which the rate is half of its maximum. On to B1, for which the figures for the Km in data set [1] and in data set [2] were 8.63 µM and 3.00 µM, respectively. The kcat in data set [1] is 1595.06 10^-4 s^-1; in data set [2], 863.66 10^-4 s^-1.
